Columns and labels:
[1] = biological target: HomB, outer membrane protein of Helicobacter pylori (recombinant, C-terminal His-tag) (Helicobacter pylori strain J99); assay: SDS-PAGE of SEC fractions; monomer and dimer peak fractions of the size exclusion runs on SDS-PAGE with or without beta-mercaptoethanol
[2] = biological target: HomB, outer membrane protein of Helicobacter pylori (recombinant, C-terminal His-tag) (Helicobacter pylori strain J99); assay: SAXS; ~2.5 mg/ml protein in 20 mM Tris-Cl pH 8, 200 mM NaCl, 5 mM BME; molecular weight from Porod volume, concentration-independent
[3] = biological target: HomB, outer membrane protein of Helicobacter pylori (recombinant, C-terminal His-tag) (Helicobacter pylori strain J99); assay: SEC; 1 mg protein on Superose 12, 50 mM Tris-Cl pH 8.0, 300 mM NaCl, 4 °C, 0.5 ml/min; alone or with detergents (LDAO, CHAPS, TWEEN 20) or 1 mM lipids (DMPC, DOPC); calibrated with molecular weight markers
[4] = biological target: HomA, outer membrane protein of Helicobacter pylori (recombinant, C-terminal His-tag) (Helicobacter pylori strain J99); assay: SDS-PAGE of SEC fractions; monomer and dimer peak fractions of the size exclusion runs on SDS-PAGE with or without beta-mercaptoethanol
[5] = biological target: HomA, outer membrane protein of Helicobacter pylori (recombinant, C-terminal His-tag) (Helicobacter pylori strain J99); assay: SAXS; ~2.5 mg/ml protein in 20 mM Tris-Cl pH 8, 200 mM NaCl, 5 mM BME; molecular weight from Porod volume, concentration-independent
[6] = biological target: HomA, outer membrane protein of Helicobacter pylori (recombinant, C-terminal His-tag) (Helicobacter pylori strain J99); assay: SEC; 1 mg protein on Superose 12, 50 mM Tris-Cl pH 8.0, 300 mM NaCl, 4 °C, 0.5 ml/min; alone or with detergents (LDAO, CHAPS, TWEEN 20) or 1 mM lipids (DMPC, DOPC); calibrated with molecular weight markers

Measured: stoichiometry N

HomB, outer membrane protein of Helicobacter pylori (recombinant, C-terminal His-tag) (natural protein)
2: [1] | [2] | [3]

HomA, outer membrane protein of Helicobacter pylori (recombinant, C-terminal His-tag) (natural protein)
2: [4] | [5] | [6]

Reference: paper PMC8714817
